Target: cynomolgus DLL3 protein (cynomolgus)
Assay: Octet, single concentration of trispecific (60 nM), cynomolgus DLL3

Sequence of cynomolgus DLL3 protein (cynomolgus) (chain, as listed by the source): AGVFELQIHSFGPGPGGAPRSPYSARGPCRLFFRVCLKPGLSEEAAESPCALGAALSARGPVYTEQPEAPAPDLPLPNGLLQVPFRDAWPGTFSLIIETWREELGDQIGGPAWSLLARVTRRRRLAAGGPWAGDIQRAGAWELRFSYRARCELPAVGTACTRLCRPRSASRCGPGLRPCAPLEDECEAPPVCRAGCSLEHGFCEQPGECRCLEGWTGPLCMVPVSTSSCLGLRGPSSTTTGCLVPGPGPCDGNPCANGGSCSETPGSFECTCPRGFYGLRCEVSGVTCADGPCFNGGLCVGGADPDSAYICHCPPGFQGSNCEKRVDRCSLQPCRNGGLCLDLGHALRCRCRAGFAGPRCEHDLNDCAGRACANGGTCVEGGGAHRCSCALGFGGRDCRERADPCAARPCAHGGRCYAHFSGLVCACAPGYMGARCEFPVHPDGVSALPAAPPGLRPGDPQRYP

Binder | Kd [pM]
anti-DLL3 trispecific protein, DLL3 binder 3A011 (protein, part only; not given: anti-CD3 fragment and anti-albumin domain, part only) chain, part: EVQLVESGGGLVQPGGSLTLSCAASGSSVSFLSLAWYRQAPGKKRELVAGISTDGSTDYIDSVKGRFTISRDNAKNSVYLQMNSLRAEDTAVYYCYAYRWRTRYTYWGQGTLVTVSSGGGGSGGGSGGGGSGGGSHHHHHH | 8800
anti-DLL3 trispecific protein, DLL3 binder 3A02 (protein, part only; not given: CD3 binder and albumin binder, part only) chain, part: EVQLVESGGGLVQPGGSLTLSCAASGSSVSFLSLAWYRQAPGKKRELVAGISADGSTAYIDSVKGRFTISRDNAKNSVYLQMNSLRAEDTAVYYCYAYRWRTRYTYWGQGTLVTVSSGGGGSGGGSGGGGSGGGSHHHHHH | 9500

Target: human DLL3 on DMS-153 cells (human) (UniProt Q9NYJ7)
Sequence (Q9NYJ7 27-618 limits assumed): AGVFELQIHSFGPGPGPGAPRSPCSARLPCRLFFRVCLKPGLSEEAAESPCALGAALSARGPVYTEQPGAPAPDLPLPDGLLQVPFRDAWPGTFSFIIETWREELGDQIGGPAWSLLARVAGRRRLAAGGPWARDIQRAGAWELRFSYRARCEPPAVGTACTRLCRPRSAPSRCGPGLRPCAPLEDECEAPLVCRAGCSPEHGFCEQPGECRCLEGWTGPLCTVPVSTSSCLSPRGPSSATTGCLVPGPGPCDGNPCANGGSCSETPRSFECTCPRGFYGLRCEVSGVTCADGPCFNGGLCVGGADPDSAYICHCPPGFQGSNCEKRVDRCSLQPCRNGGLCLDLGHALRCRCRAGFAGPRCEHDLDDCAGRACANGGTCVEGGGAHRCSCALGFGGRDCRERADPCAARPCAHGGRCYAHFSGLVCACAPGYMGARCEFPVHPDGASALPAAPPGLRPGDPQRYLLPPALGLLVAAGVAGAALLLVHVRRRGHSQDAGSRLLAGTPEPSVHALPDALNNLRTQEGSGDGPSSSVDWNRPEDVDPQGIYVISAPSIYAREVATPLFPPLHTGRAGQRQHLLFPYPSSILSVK
Assay: cell-based or functional assay

Binder | DMS-153 TDCC EC50 (conditioned medium, human T cells) [pM] | TDCC EC50 (CHO expressed, purified protein; method of Example 2, DMS-153 cells) [pM]
anti-DLL3 trispecific protein, DLL3 binder 2E010 (protein, part only; not given: anti-CD3 and anti-albumin domains, part only) chain, part: EVQLVESGGGLVQPGGSLTLSCVASGSTSSINAMAWYRRAPGKQRELVAGISSDGSKVYADSVKGRFTISRDNAKNSVYLQMNSLRAEDTAVYYCYYFHTVSGSSMRYWGQGTLVTVSSGGGGSGGGSGGGGSGGGSHHHHHH | 31 | –
anti-DLL3 trispecific protein, DLL3 binder 2E01 (protein, part only; not given: anti-CD3 and anti-albumin domains, part only) chain, part: EVQLVESGGGLVQPGGSLTLSCVASGSTSSINAMGWYRRAPFKQGELPAGISPDGTKAYADSAKVRFTISRDNAKNSVYLQMNSLRAEDTAVYYCYYFHTVCGTSMGYWGQGTLVTVSSGGGGSGGGSGGGGSGGGSHHHHHH | 33 | –
anti-DLL3 trispecific protein, DLL3 binder 2F11 (protein, part only; not given: anti-CD3 and anti-albumin domains, part only) chain, part: EVQLVESGGGLVQPGGSLTLSCVASGSVSSINAMGWYRRAPGKQRELVAGISSDGSKVYKDSVKGRFTISRDNAKNSVYLQMNSLRAEDTAVYYCYYFRTVSGSSMGYWGQGTLVTVSSGGGGSGGGSGGGGSGGGSHHHHHH | 49 | –
anti-DLL3 trispecific protein, DLL3 binder 2A04 (protein, part only; not given: CD3 binder and albumin binder, part only) chain, part: EVQLVESGGGLVQPGGSLTLSCVASGSTSSINAMAWYRRAPGKQRELVAGISSDGSKVYTDSVKGRFTISRDNAKNSVYLQMNSLRAEDTAVYYCYYFRTTSGSSMRYWGQGTLVTVSSGGGGSGGGSGGGGSGGGSHHHHHH | 81 | –
anti-DLL3 trispecific protein, DLL3 binder 1C03 (protein, part only; not given: CD3 fragment and albumin sdAb, part only) chain, part: EVQLVESGGGLVQPGGSLTLSCVASGSTSSINAMAWYRRAPGKQRELVAGISSDNSKVYADSVKGRFTISRDNAKNSVYLQMNSLRAEDTAVYYCYYFRTVGGSSMRYWGQGTLVTVSSGGGGSGGGSGGGGSGGGSHHHHHH | 96 | –
anti-DLL3 trispecific protein, DLL3 binder 2E011 (protein, part only; not given: anti-CD3 fragment and anti-albumin sdAb, part only) chain, part: EVQLVESGGGLVQPGGSLTLSCVASGSTSSINAIGWYRRAPGKQRELVAGISSDGSSVYADSVKGRFTISRDNAKNSVYLQMNSLRAEDTAVYYCYYFRRVSGSSMRYWGQGTLVTVSSGGGGSGGGSGGGGSGGGSHHHHHH | 190 | –
anti-DLL3 trispecific protein, DLL3 binder 2E05-M106Q (protein, part only; not given: CD3 binder and albumin binder, part only) chain, part: EVQLVESGGGLVQPGGSLTLSCVASGSPSSINAYGWYRRAPGKQRELVAGISSDGSKVYSDSVKGRFTISRDNAKNSVYLQMNSLRAEDTAVYYCYYFRTVSGSSQSYWGQGTLVTVSSGGGGSGGGSGGGGSGGGSHHHHHH | – | 41
anti-DLL3 trispecific protein, DLL3 binder 2C04 (protein, part only; not given: CD3 fragment and albumin sdAb, part only) chain, part: EVQLVESGGGLVQPGGSLTLSCVASGSTSSRNAMGWYRRAPGKQRELVAGISSDGSKLYADSVKGRFTISRDNAKNSVYLQMNSLRAEDTAVYYCYYFRTVLGSSMRYWGQGTLVTVSSGGGGSGGGSGGGGSGGGSHHHHHH | – | 43
anti-DLL3 trispecific protein, DLL3 binder 2E05-M106Y (protein, part only; not given: CD3 binder and albumin binder, part only) chain, part: EVQLVESGGGLVQPGGSLTLSCVASGSPSSINAYGWYRRAPGKQRELVAGISSDGSKVYSDSVKGRFTISRDNAKNSVYLQMNSLRAEDTAVYYCYYFRTVSGSSYSYWGQGTLVTVSSGGGGSGGGSGGGGSGGGSHHHHHH | – | 63

Continued, values first:

DMS-153 TDCC EC50 (conditioned medium, human T cells) [pM] | TDCC EC50 (CHO expressed, purified protein; method of Example 2, DMS-153 cells) [pM] | Binder
41 | – | anti-DLL3 trispecific protein, DLL3 binder 4E02 (protein, part only; not given: anti-CD3 and anti-albumin domains, part only) chain, part: EVQLVESGGGLVQPGGSLTLSCAASGSQVSFLSMAWYRQAPGKKRELVAGISADGSTVYIDSVKGRFTISRDNAKNSVYLQMNSLRAEDTAVYYCYAYRWSTRYTYWGQGTLVTVSSGGGGSGGGSGGGGSGGGSHHHHHH
48 | – | anti-DLL3 trispecific protein, DLL3 binder 4B011 (protein, part only; not given: CD3 binder and albumin binder, part only) chain, part: EVQLVESGGGLVQPGGSLTLSCAASGSSVTFLSMAWYRQAPGKKRELVAGISADGSTVYIDSVKGRFTISRDNAKNSVYLQMNSLRAEDTAVYYCYAYRWTTRGTYWGQGTLVTVSSGGGGSGGGSGGGGSGGGSHHHHHH
51 | – | anti-DLL3 trispecific protein, DLL3 binder 4H04 (protein, part only; not given: anti-CD3 fragment and anti-albumin sdAb, part only) chain, part: EVQLVESGGGLVQPGGSLTLSCAASGSSVKFLSMAWYRQAPGKKRELVAGVSADGSTDYIDSVKGRFTISRDNAKNSVYLQMNSLRAEDTAVYYCYAYEWTTRYTYWGQGTLVTVSSGGGGSGGGSGGGGSGGGSHHHHHH
61 | – | anti-DLL3 trispecific protein, DLL3 binder 3D07 (protein, part only; not given: anti-CD3 and anti-albumin domains, part only) chain, part: EVQLVESGGGLVQPGGSLTLSCAASGSSVRFLSMAWYRQAPGKKRELVAGISADGSTDYIDSVKGRFTISRDNAKNSVYLQMNSLRAEDTAVYYCYAYSWTTRYTYWGQGTLVTVSSGGGGSGGGSGGGGSGGGSHHHHHH
67 | – | anti-DLL3 trispecific protein, DLL3 binder 4B07 (protein, part only; not given: anti-CD3 fragment and anti-albumin sdAb, part only) chain, part: EVQLVESGGGLVQPGGSLTLSCAASGSSVGFLSMAWYRQAPGKKRELVAGISADGSTVYIDSVKGRFTISRDNAKNSVYLQMNSLRAEDTAVYYCYAYRWTTRYTYWGQGTLVTVSSGGGGSGGGSGGGGSGGGSHHHHHH
68 | – | anti-DLL3 trispecific protein, DLL3 binder 4C06 (protein, part only; not given: anti-CD3 fragment and anti-albumin sdAb, part only) chain, part: EVQLVESGGGLVQPGGSLTLSCAASNSSVSKLSMAWYRQAPGKKRELVAGISADGSTAYIDSVKGRFTISRDNAKNSVYLQMNSLRAEDTAVYYCYAYRWSTRYTYWGQGTLVTVSSGGGGSGGGSGGGGSGGGSHHHHHH
120 | – | anti-DLL3 trispecific protein, DLL3 binder 3H06 (protein, part only; not given: CD3 fragment and albumin sdAb, part only) chain, part: EVQLVESGGGLVQPGGSLTLSCAASGSSVSQLSMAWYRQAPGKKRELVAGISADGSTDYFDSVKGRFTISRDNAKNSVYLQMNSLRAEDTAVYYCYAYRWTTRGTYWGQGTLVTVSSGGGGSGGGSGGGGSGGGSHHHHHH
120 | – | anti-DLL3 trispecific protein, DLL3 binder 3H011 (protein, part only; not given: CD3 binder and albumin binder, part only) chain, part: EVQLVESGGGLVQPGGSLTLSCAASGSSVKFLSMAWYRQAPGKKRELVAGISADGSTVYIDSVKGRFTISRDNAKNSVYLQMNSLRAEDTAVYYCYAYRWPTRYTYWGQGTLVTVSSGGGGSGGGSGGGGSGGGSHHHHHH
– | 54 | anti-DLL3 trispecific protein, DLL3 binder 4D09-M34L (protein, part only; not given: anti-CD3 fragment and anti-albumin sdAb, part only) chain, part: EVQLVESGGGLVQPGGSLTLSCAASGSSVKFLSLAWYRQAPGKKRELVAGISADGSTDYILSVKGRFTISRDNAKNSVYLQMNSLRAEDTAVYYCYAYEWTTRYTYWGQGTLVTVSSGGGGSGGGSGGGGSGGGSHHHHHH

Target: biotinylated human DLL3 protein expressed as a human IgG1 fusion protein (human) (UniProt Q9NYJ7)
Sequence (Q9NYJ7 27-492): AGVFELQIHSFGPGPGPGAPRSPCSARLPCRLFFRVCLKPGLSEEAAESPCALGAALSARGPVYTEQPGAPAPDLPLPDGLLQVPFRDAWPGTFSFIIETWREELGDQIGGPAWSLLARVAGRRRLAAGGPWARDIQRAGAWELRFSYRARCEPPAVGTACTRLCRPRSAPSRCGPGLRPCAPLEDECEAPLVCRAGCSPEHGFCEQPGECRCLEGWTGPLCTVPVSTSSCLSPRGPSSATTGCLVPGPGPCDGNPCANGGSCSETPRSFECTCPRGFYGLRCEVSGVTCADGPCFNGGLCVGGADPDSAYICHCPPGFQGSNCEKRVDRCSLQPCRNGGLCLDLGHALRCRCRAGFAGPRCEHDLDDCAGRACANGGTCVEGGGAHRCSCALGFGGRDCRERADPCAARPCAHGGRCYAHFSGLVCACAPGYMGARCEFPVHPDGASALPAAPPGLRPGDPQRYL
Assay: Octet, several concentrations of trispecific (60, 20, 6.67, 2.22 nM), human DLL3

Binder | Kd [pM]
anti-DLL3 trispecific protein, DLL3 binder 3A011 (protein, part only; not given: anti-CD3 fragment and anti-albumin domain, part only) chain, part: EVQLVESGGGLVQPGGSLTLSCAASGSSVSFLSLAWYRQAPGKKRELVAGISTDGSTDYIDSVKGRFTISRDNAKNSVYLQMNSLRAEDTAVYYCYAYRWRTRYTYWGQGTLVTVSSGGGGSGGGSGGGGSGGGSHHHHHH | 7300
anti-DLL3 trispecific protein, DLL3 binder 3A02 (protein, part only; not given: CD3 binder and albumin binder, part only) chain, part: EVQLVESGGGLVQPGGSLTLSCAASGSSVSFLSLAWYRQAPGKKRELVAGISADGSTAYIDSVKGRFTISRDNAKNSVYLQMNSLRAEDTAVYYCYAYRWRTRYTYWGQGTLVTVSSGGGGSGGGSGGGGSGGGSHHHHHH | 7800

From patent US20200095340A1
